Values of other authors as cited in publication PMC2934757.

Molecular target: IGF-1 (Homo sapiens) (UniProt P05019)
Chain of UniProt P05019 (P05019 49-118): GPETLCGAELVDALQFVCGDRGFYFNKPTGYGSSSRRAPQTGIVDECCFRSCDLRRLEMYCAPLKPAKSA

Kd: 7 nM
Substance: IGFBP-2 1-248 (from UniProt P18065)
